Assay results reported in PMC3325594 (International Journal of Toxicology, 2012).

Key:
[1] = test system: insulin receptor (IR) signaling; settings: cited from earlier work
female mice = test: 2-year carcinogenicity study, survival rates in female mice; format: in vivo; settings: 12.5 IU/kg
female rats = test: 2-year carcinogenicity study, survival rates in female rats; format: in vivo; settings: 5 IU/kg
insulin receptor (IR) = settings: in vitro; cited from earlier work
rats = settings: 12-month toxicity study; cited from earlier work
mammalian cell lines = settings: cited from earlier work
[2] = test system: insulin-like growth factor 1 receptor (IGF-1R); settings: in vitro; cited from earlier work
[3] = test system: mammary gland of young female rats; settings: 26-week toxicity study; cited from earlier work

[Gly^A21, des-Thr^B30]-human insulin [M2]
In vitro metabolic and mitogenic profiles [1]: comparable with human insulin

NPH: neutral protamine Hagedorn (NPH) insulin, comparator group
Survival rate (female mice; week 80): 56% | Survival rate (female mice; week 81): 56% | Survival rate (female mice; week 82): 56% | Survival rate (female mice; week 85): 50% | Survival, animals alive (female mice; week 88, of 50 initial animals): 22 n | Survival, animals alive (female mice; week 89, of 50 initial animals): 22 n | Survival rate (female rats; week 80): 72% | Survival rate (female rats; week 81): 72% | Survival rate (female rats; week 82): 72% | Survival rate (female rats; week 83): 70% | Survival rate (female rats; week 84): 70%

[Gly^A21] human insulin [M1]
In vitro metabolic and mitogenic profiles [1]: comparable with human insulin

[Asp^B10] insulin
Affinity toward the insulin receptor (IR) compared to regular human insulin (insulin receptor (IR)): higher affinity | Occupancy time at the IR compared to regular human insulin (insulin receptor (IR)): prolonged occupancy time | Incidence of mammary tumors (rats): higher incidence of mammary tumors | Proliferation rate in mammalian cell lines compared to regular human insulin (mammalian cell lines): higher proliferation rate | Affinity toward IGF-1R compared to regular human insulin [2]: higher affinity

insulin detemir
Proliferative effect in the mammary gland [3]: modest proliferative effect
